Experiment: label from the status in PepcDB records
With “MTVQRREKGSSITRVLEIIEAISRAERPMSPAELAFLLDIPKPSIHRLLQQLEADNYVQINMRGLLVPGDRMHSIALGVLHSSRFKALRQAILKKLAETIGETCGIAIPDGIEMIYYDRVQTNWPLRVNLPVGSHTPVACTASGKLYLSSLPKERRHRIIGKLSLEKLARNTLIESESLEKELINIQANELGTDNEEFIDGMVACSVPIKDQDGKLFACLFTHAPVIRKSLDELLAFEPALRHAAIELGDLLKEQ” the protein production was “failed”. In the case of “MTVSGPGTPEPRPATPGASSVEQLRKEGNELFKCGDYGGALAAYTQALGLDATPQDQAVLHRNRAACHLKLEDYDKAETEASKAIEKDGGDVKALYRRSQALEKLGRLDQAVLDLQRCVSLEPKNKVFQEALRNIGGQIQEKVRYMSSTDAKVEQMFQILLDPEEKGTEKKQKASQNLVVLAREDAGAEKIFRSNGVQLLQRLLDMGETDLMLAALRTLVGICSEHQSRTVATLSILGTRRVVSILGVESQAVSLAACHLLQVMFDALKEGVKKGFRGKEGAIIVDPARELKVLISNLLDLLTEVGVSGQGRDNALTLLIKAVPRKSLKDPNNSLTLWVIDQGLKKILEVGGSLQDPPGELAVTANSRMSASILLSKLFDDLKCDAERENFHRLCENYIKSWFEGQGLAGKLRAIQTVSCLLQGPCDAGNRALELSGVMESVIALCASEQEEEQLVAVEALIHAAGKAKRASFITANGVSLLKDLYKCSEKDSIRIRALVGLCKLGSAGGTDFSMKQFAEGSTLKLAKQCRKWLCNDQIDAGTRRWAVEGLAYLTFDADVKEEFVEDAAALKALFQLSRLEERSVLFAVASALVNCTNSYDYEEPDPKMVELAKYAKQHVPEQHPKDKPSFVRARVKKLLAAGVVSAMVCMVKTESPVLTSSCRELLSRVFLALVEEVEDRGTVVAQGGGRALIPLALEGTDVGQTKAAQALAKLTITSNPEMTFPGERIYEVVRPLVSLLHLNCSGLQNFEALMALTNLAGISERLRQKILKEKAVPMIEGYMFEEHEMIRRAATECMCNLAMSKEVQDLFEAQGNDRLKLLVLYSGEDDELLQRAAAGGLAMLTSMRPTLCSRIPQVTTHWLEILQALLLSSNQELQHRGAVVVLNMVEASREIASTLMESEMMEILSVLAKGDHSPVTRAAAACLDKAVEYGLIQPNQDGE”, the protein production is reported as “failed”. In the case of “MTYFFETYGCQMNQAESSSMEQILLEKGWTNSSDAEHCDLLIINTCSVRITAENRVLGRLGHFSGLKKKRKFFVLLIGCMAERLYTEIQKEFPLIDYVVGMFERNLLPQIFDEIKARLKNDNYMAEFTHDNIEEKPVSGYYFAPLSHSPKSFQSYVPIMNGCNNFCTYCIVPYVRGREVSRPVNEILQEITELSSRGVREITLLGQNVNSYKGEDGEGRLIDFPKLLTLIAREADKTDMIRWIRFMSSHPKDMSDALIDTIAAEKRLCKLVHLPVQHGSDTILKRMNRVYTIEHYKNRIKRLKETIPDIALSTDILMGFPGETEDDVKATLDLMQEIEFDSAFMYHYNPREGTKAFNYPDRIPEEVKIERLGRVIDLQLKITAKKMKAKLGKKVDILVESHSRNERSELFGHTEQGEMTVIQGNPPESLIGNFAHAELKELKGKTFRANLN”, the protein production is reported as “failed”. With “MTYFLYGNNFSSSILDTISYIIDWIIINMEPITLTLCLLVFAIVMFVWEKVPLAVTSMIVCVALVITGVLNIKQAFAGFIDTNVILFVAMFIVGGALFETGMANKVGGVITRFAKTEKQLIFTIMVVVGLMSGVLSNTGTAAVLIPVVIGVAAKSGFSRSRLLMPLVFAAALGGNLSLIGAPGNLIAQSALQNIGGGFGFFEYAKIGLPMLICGILYFLTIGYRFLPNNATGGEVGSVGEQRDYSHVPQWKQRLSLVVLIATILGMIFEKKIGVSLAVTGCIGALVLVVSGVLTEKQAYKAIDSQTIFIFGGTLALAKALEMTGAGKLVADYVIGMLGQNSSPFMLLIAVFALSVVMTNFMSNTATTALLVPVSLSIAAGMGADPRAVLMATVIGGSCAYATPIGMPANMMVLSAGGYKFVDYAKAGIPLIIVSTIVSLILLPILFPFHP” the protein production was “failed”. In the case of “MTYVLYGIKACDTMKKARTWLDEHKVAYDFHDYKAVGIDREHLRRWCAEHGWQTVLNRAGTTFRKLDEAQKADLDEAKAIELMLAQPSMIKRPVLELGGRTLVGFKPDAYAAALA”, the protein production is reported as “not failed”. With “MVAEITAPKSMGKVLGYNFSKVTAGNASVILTSSMSVDANGETNFERALTDMDMRIPSGIRTKKTVFHCSLNPHPDDRLTTEQLQDIAREYMEKMGYGKQPYIVFKHNDIAREHIHIVSLRVDSYGKKLPYKFEARRSKRITDELERKYGLIPSGNRRSRHETHAENVLKTADVKQGDVRRQIAAVVRAVLKRYAFRSLGEMNLLLARYHIVAEEVRKEYKGKRYDGLVYAITDDAGEKRMIPLHAGKIGRGTGYAAVVRHFEKSKALIKEKAPMLRNAIIEVMQSSPDKERFSEEMKKRGIDVHIRQNEQGRIYGITFISDEAGIAANGSRLGKGYSAHVFNDYFLGG” the protein production was “not failed”. For “MVAEKERVLMDLQDVFEYAFDEIFVTDDKGIVVRVNSTCERHYQIAAKELVGKHVKELQKDGIFYPSATLEVIEKKRPIELVQTTKSGEYLHVRTRPVFDDEGNLRRVISYSRDLTELYQLRQKVEEMDNQLKTYKKELRETYEHEGLIFKSIAMQKIIETIKKVSVVDSTVLVLGETGVGKSRLVRHLHEMSNRKNESFYEINCAALPTNLIESELFGYSGGSFTGANREGKKGLLESAHKGTLFLDEIGEMPLEIQAKLLQVLQEKTFRPIGGRELKKVDVRIVAATNRDLSMMVKQGTFRKDLYYRLNVIPILIPPLRERTEDILPLIYHYLQHFNEKYGRNVKLAPSTLQMFVGYPWEGNNREIENVIERIVITADDIVTIEDLPIAMQESTVEQSGQSLYKMLEEVERNIILKAYKTYGSSYKVAEFLKISQSAATRKIKKLIEEEENIG”, the protein production was “failed”. For “MVALPDWMALAPALSLALASLVLLLADSIDPDSTNTGLLAGISVLGSLLSFGFAGWFITAGTGMADNTGVALFNSQLVVDQMALFFMAIVGSVTTLVVLASYDYITEHSYQAEFFALVLLSATGMSLLSAANSLATAFVALELVSLPSYALVAFLKENKGSVEAGLKYFLIGAVSSAVLAYGISLVYAATGVLRFDGVATAISSGTIQTISEGSIQAQSGDPAVPMAILGVGILMIIGGVAFKTASVPFHFWAPEAYEGAPAPISAFLSSASKAAGFVLAFRAFAVAFPIGDLLAAGGAINWVMAFQILAIATMFIGNFAAATQETVKRMLAYSSVGHAGYVLIGLAAVSGSGEGLSLSLSAGMSHLLVYGFMNTGAFLFIALAEYWGVGRRFEDYNGLGKEAPVACAAMTVFLFSLAGLPIGGGFFSKFYLFSATLNVGAWSLAAALIINSALSLFYYSRVVKAMWIEEPTGSRTIESYPMGLYTAVVGAAIVTVLLVPGFNRVSEIAFQAAQLL”, the protein production was “failed”. In the case of “MVCCPVNENAAALVVSDGRVMIWELKSAVCNRNSRNSSSGVSPLYSPVSFCGIPVGVLQNKLPDLSLDNMIGQSAIAGEEHPRGSILREVHLKFLLTGLLSGLPAPQFAIRMCPPLTTKNIKMYQPLLAVGTSNGSVLVYHLTSGLLHKELSIHSCEVKGIEWTSLTSFLSFATSTPNNMGLVRNELQLVDLPTGRSIAFRGERGNDESAIEMIKVSHLKQYLAVVFRDKPLELWDVRTCTLLREMSKNFPTITALEWSPSHNLKSLRKKQLATREAMARQTVVSDTELSIVESSVISLLQEAESKSELSQNISARGHFVFTDIDGQVYHLTVEGNSVKDSARIPPDGSMGSITCIAWKGDTLVLGDMDGNLNFWDLKGRVSRGIPTHRSWVRKIRFAPGKGNQKLIAMYNDGAEVWDTKEVQMVSSLRSGRNVTFRILDVDWCTSDKVILASDDGCIRVLEMSMKSACFRMDEQELTEPVWCPYLLVPRASLALKAFLLHQPWNGQYSLDISHVDYPENEEIKNLLQEQLNSLSNDIKKLLLDPEFTLLQRCLLVSRLYGDESELHFWTVAAHYLHSLSQEKSASTTAPKEAAPRDKLSNPLDICYNVLCENAYFQKFQLERVNLQEVKRSTYDHTRKCTDQLLLLGQTDRAVQLLLETSADNQHYYCDSLKACLVTTVTSSGPSQSTIKLVATNMIANGKLAEGVQLLCLIDKAADACRYLQTYGEWNRAAWLAKVRLNPEECADVLRRWVDHLCSPQVNQKSKALLVLLSLGCFFSVAETLHSMRYFDRAALFVEACLKYGAFEVTEDTEKLITAIYADYARSLKNLGFKQGAVLFASKAGAAGKDLLNELESPKEEPIEE”, the protein production is reported as “failed”. For “MVCDKCEKKLSKVIVPDKWKDGARNVTEGGGRKINENKLLSKKNRWSPYSTCTTKCMICKQQVHQDGKYCHTCAYSKGVCAMCGKQVLDTKMYKQSNV”, the protein production was “failed”. For “MVDDNTDQSLSFGRLLFGAGLALQASEDFREMDETVEYAESAGVPVPDVLAPLASGMMLVGGIGVALWRFPRIATGAVVTFLAVVTPTMHDFWNAEPGDRSGERLAFFGNLAMLGAALAYLRKAYR”, the protein production was “failed”. With “MVDFKVVLSDPKTGLSYKIDAAGAAAGALLGKKIGTEVDGAPFGMSGYKITITGGSDKTGTPARPDLPGNGRRGLLISDGFGFNATHNGERRRKSQRGNEIAADFVQVNAKITVYGEKPVTEIFAAAAE” the protein production was “failed”. With “MVDHGMFYSSRMSTLSSNGRGDAYTCKKALHLTLNKPNVVKACSDLKKNEHQISRDFAAETKKKTEFLVLKKNNDERSKTGEVTREKKQSALPLKLSKTPRSGTGEIKQTLKKRGLSKSVPETSRLIKLKKQPPVKVSDKPKSCPVLTKNDTDTLELFEIAKKSADFANAKGILASEVETSMCVDTLTLLLEFPISARDMETRKLMVRLEHLTKHKNRKICNSASKLLQCWRESIREQQLRESRKTQG” the protein production was “failed”. In the case of “MVDTTILAQALGFISFGLGFSVFYQKNDRHLKILMLIFNLNHLLHFLLLGSMVSALSALLSALRTTTAIFVSSKRVAAVFIVISLVSGFWVAEQWRDLWPIIGTVIGTYSVFCLSGIRMRIGFLLGASCWLTNNILVGSIGGTLLEMTVIVMNLLTIYRLHRQQSESMINQSSY”, the protein production is reported as “failed”. With “MVEEKVVEKGKERAVEVTKWRRVFDDYRAMSDEILRPDEPKKEKFLEAMRKYLTKQNWPFLLPYKLTLEACTKCGTCAEACTMYLGSGRKKIYSPVYRSDMLRKIYKKHFTLTGKLFGPLIGAKDPTEDDINALAESAYRCTVCRRCALACPFGLDNGLITRETRKIFADLGIVPDELKDNGVENQLKYGNAPKIPYEAFMDILEFIKEDIEDEKGVEVEIPVDKKGAKYLIMNNAGDYLAFTETVQGIVEIMNYVGEDWTLNSPKTGVNDIVNYGLFYSDEDLVRVMKAHVETAKKLDVEYLVVGECGHAYDSIAHFAKDLIPPEERPFKVISWMELLDQFIREGKLKLDKEKNPEPVTFHDSCKWGRTGGIYEEPRRILQAACKDFREMYPNREWNYCCGGGGGFAIMAKDDFLKFRMETYGKMKVQQLKQTGAKIIATICSNCKAQFREMINYYNLDMRFSGVSELVANALVYE” the protein production was “failed”. With “MVEHIFKRDGHAEKFQPYKIEDAIKKAFESVNVRYDDRIYTNVILAIESENLNSVECIQDRIELEFFKAGYFAVMKSFMNYRFLHKMQREHIYGLSEDTTYVNSTQSVEEYINKEDWRINANANTGYSNAGLVNNLAGKLIANYWLDKVYSKEEGYAHRNGDVHIHDLDCLTGYCAGWSLRSLLNEGFNGVRGRVESRAPKHLREALGQMANFLGILQSEWAGAQAFSSFDTYLAPYVFRDQLEFKEIKKAIKSFVYNLNVPARWGQSPFTNVTIDWTVPADLKDQIPTRNDRHLFEDIQEDALLVQEAQKRGASSLLSMTYKYFQAEMNLINRAFYEVMTEGDKTGQPFTFPIPTVNITEDFDWHGENTDLLFENTAKIGSSYFQNFIGSQYIRNEKGELVENPEAYKPNAVRSMCCRLQLDLRELLKRGGGLFGSAEMTGSIGVVTLNMARLGYRFRGDREGLMAELTKLMDLSKSTLEKKRQAVTELFHRGLYPYTKRYLPGFNNHFSTIGVNGINEMIRNFTNDQDNISSPSGMAFATEILEFMRERIRSYQEETGNLYNLEATPAEGTTYRFAKEDKKRYPQIIQAGMEENVYYTNSSQLPANFTDDPFEALTLQDELQCKYTGGTVLHLYMREKISSAEACRKLVKTVITSYKLPYITITPVFSVCPKHGYLRGEHEYCPLCDEEALLEIEQSQCC” the protein production was “failed”.
